This data set addresses T1, recombinant human MAT II β subunit protein with N-terminal poly-His tag, expressed in E. coli from pQE-30 (Clone 5).
T1 chain: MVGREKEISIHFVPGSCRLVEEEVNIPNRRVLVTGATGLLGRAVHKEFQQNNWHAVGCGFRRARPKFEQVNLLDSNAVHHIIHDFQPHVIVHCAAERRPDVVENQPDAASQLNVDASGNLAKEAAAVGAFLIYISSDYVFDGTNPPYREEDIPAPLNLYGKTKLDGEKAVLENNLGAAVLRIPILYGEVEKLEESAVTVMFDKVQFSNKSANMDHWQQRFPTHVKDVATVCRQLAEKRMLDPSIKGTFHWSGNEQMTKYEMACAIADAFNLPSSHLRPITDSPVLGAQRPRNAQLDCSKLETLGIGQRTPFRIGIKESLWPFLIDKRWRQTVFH

B1: endogenous E. coli MAT α subunit (protein)
chain: AKHLFTSESVSEGHPDKIADQISDAVLDAILEQDPKARVACETYVKTGMVLVGGEITTSAWVDIEEITRNTVREIGYVHSDMGFDANSCAVLSAIGKQSPDINQGVDRADPLEQGAGDQGLMFGYATNETDVLMPAPITYAHRLVQRQAEVRKNGTLPWLRPDAKSQVTFQYDDGKIVGIDAVVLSTQHSEEIDQKSLQEAVMEEIIKPILPAEWLTSATKFFINPTGRFVIGGPMGDCGLTGRKIIVDTYGGMARHGGGAFSGKDPSKVDRSAAYAARYVAKNIVAAGLADRCEIQVSYAIGVAEPTSIMVETFGTEKVPSEQLTLLVREFFDLRPYGLIQMLDLLHPIYKETAAYGHFGREHFPWEKTDKAQLLRDAAGLK
For the protein B1, the “Km of MAT for L-methionine” value was “This association changed the kinetic properties of the enzyme and lowered the Km of MAT for L-methionine”.

For the origin of these results see US20040259198.
